Laboratory results as given in patent US20240294895A1, “ENZYMATIC COMPOSITIONS FOR CARBOHYDRATE ANTIGEN CLEAVAGE ON DONOR ORGANS, METHODS AND USES ASSOCIATED THEREWITH” (THE UNIVERSITY OF BRITISH COLUMBIA, priority 2018, published 2024).

How the values were obtained:
Assay type in all cases: biochemical, Flavonifractor plautii
[1] = substrate: CC(=O)N[C@H]1[C@H](O[C@H]2[C@@H](O)[C@@H](CO)O[C@@H](Oc3ccc4c(C)cc(=O)oc4c3)[C@@H]2O)O[C@H](CO)[C@@H](O)[C@@H]1O[C@@H]1O[C@H](CO)[C@H](O)[C@H](O[C@H]2O[C@H](CO)[C@H](O)[C@H](O)[C@H]2N)[C@H]1O[C@@H]1O[C@@H](C)[C@@H](O)[C@@H](O)[C@@H]1O; assay: Kinetic parameters of FpGalNase_truncA (coupled fluorescence assay, MU release); details: other: 100 mM NaH2PO4, pH 7.4, 37° C.
Description: (§1) All kinetic assays utilizing 4-methylumbelliferone as leaving group were performed through measurement of fluorescence. To avoid measurement errors based on the inner filter effect (Palmier 2007) standard curves were used to validate the linear range of the fluorophore.
Michaelis-Menten parameter was determined for GalN antigen subtype 1penta-MU and A antigen subtype 1penta-MU in 100 mM NaH2PO4, pH 7.4 at 37° C. Reaction was performed in 100 μl with 3.4 nM FpGalactosaminidase (5.31 nM FpGalNase_truncA) and 0.1 mg/mL SpHex, AfcA, 0.2 mg/mL BgaC and varying concentrations of substrate (5 μM-2 mM). The reactions were run as a series of four with controls (no FpGalactosaminidase) as duplicates. The fluorescence signal (365/435 nm) resulting from MU release by hydrolysis was monitored by Synergy H1™ plate reader [BioTek™] and converted to concentration using MU standard concentration curves determined under identical reaction conditions. Initial rates (μM/s) were determined and plotted in Grafit 7.0™ to determine the kinetic parameters.

[2] = substrate: CC(=O)N[C@H]1[C@H](Oc2ccc3c(C)cc(=O)oc3c2)O[C@H](CO)[C@@H](O[C@@H]2O[C@H](CO)[C@H](O)[C@H](O[C@H]3O[C@H](CO)[C@H](O)[C@H](O)[C@H]3NC(C)=O)[C@H]2O[C@@H]2O[C@@H](C)[C@@H](O)[C@@H](O)[C@@H]2O)[C@@H]1O; assay: Cleavage of A antigen Type2tetra-MU by FpGalNAcDeAc_D1min WT; details: other: WT, pH 7.4, 37° C.
Description: kcat/KM parameter were determined for A antigen subtype 1/2/4tetra-MU at pH 7.4 at 37° C. Reactions (total volume of 100 μL) were performed in black 96-plate wells and as coupled assays in 100 mM NaH2PO4 (pH 7.4) with 12 nM FpGalNAcDeacetylase 0.1 mg/mL SpHex, BgaC (BgaA for subtype II), AfcA, at varying concentrations of substrate (25 μM, 20 μM, 15 μM, 10 μM, 7.5 μM, 5 μM). The reactions were run as a series of four with controls (no FpGalNAcDeacetylase) as duplicates. The fluorescence signal (365/435 nm) resulting from MU release by hydrolysis was monitored on a Synergy H1™ plate reader (BioTek™) and converted to concentration using MU standard concentration curves determined under identical reaction conditions. Initial rates (μM/s) were determined and plotted in Grafit™ 7.0 to determine the kcat/KM (s^−1*mM^−1) parameters.
Based on structural information (not shown) and sequence alignment (not shown) FpGalNAcDeAc_D1min and FpGalNase_truncA were mutated using the QuickChange™ protocol (Zhang 2004), utilizing the primers noted in TABLE B. The mutants were purified via NiNTA and HIC columns as described above. The structural integrity of all mutants was checked via CD spectroscopy; all tested enzymes were structurally similar to their wild-type. […]

[3] = substrate: CC(=O)N[C@H]1[C@@H](O[C@H]2[C@@H](O)[C@@H](CO)O[C@@H](O[C@H]3[C@H](O)[C@@H](CO)O[C@@H](O[C@H]4[C@@H](O)[C@@H](CO)O[C@@H](Oc5ccc6c(C)cc(=O)oc6c5)[C@@H]4O)[C@@H]3NC(C)=O)[C@@H]2O[C@@H]2O[C@@H](C)[C@@H](O)[C@@H](O)[C@@H]2O)O[C@H](CO)[C@H](O)[C@@H]1O; assay: Kinetic parameters of FpGalNAcDeAc_D1+2 (coupled fluorescence assay, MU release); details: other: 100 mM NaH2PO4, pH 7.4, 37° C.
Description: as §1
(§2) Michaelis-Menten parameters were determined for A antigen subtype 1penta-MU in 100 mM NaH2PO4, pH 7.4 at 37° C. using the coupled assays described previously (Kwan 2015). The assay was modified to allow detection of cleavage of the subtype 1 (and later 4), by use of BgaC (Jeong 2009) instead of BgaA (Singh 2014) as β-galactosidase. In addition, since A antigen subtype 1penta-MU contains an additional galactose, the concentration of BgaC was increased to 0.2 mg/mL to compensate for its need to cleave both the Gal-β-1,3-B-GlcNAc-β-1,3-Gal-β-MU and Gal-β-MU. Further, FpGalactosaminidase was included to allow the cleavage of the galactosamine-containing intermediate. Reaction setup in 100 μl was 3 nM FpGalNacDeacetylase (4.52 nM FpGalNacDeAc_D1ext, 3.55 nM FpGalNacDeAc_D1+2) and 0.01 mg/mL FpGalactosaminidase, 0.1 mg/mL SpHex, AfcA, 0.2 mg/mL BgaC and varying concentrations of substrate (5 μM-2.5 mM). The reactions were run as a series of four with controls (no FpGalNacDeacetylase) as duplicates. The fluorescence signal (365/435 nm) resulting from MU release by hydrolysis was monitored on a Synergy H1™ plate reader (BioTek™) and converted to concentration using MU standard concentration curves determined under identical reaction conditions. Initial rates (μM/s) were determined and plotted in Grafit 7.0 to determine the kinetic parameters.

[4] = substrate: CC(=O)N[C@H]1[C@@H](O[C@H]2[C@@H](O)[C@@H](CO)O[C@@H](O[C@H]3[C@H](O)[C@@H](CO)O[C@@H](O[C@H]4[C@@H](O)[C@@H](CO)O[C@@H](Oc5ccc6c(C)cc(=O)oc6c5)[C@@H]4O)[C@@H]3NC(C)=O)[C@@H]2O[C@@H]2O[C@@H](C)[C@@H](O)[C@@H](O)[C@@H]2O)O[C@H](CO)[C@H](O)[C@@H]1O; assay: Kinetic parameters of FpGalNAcDeAc_D1ext (coupled fluorescence assay, MU release); details: other: 100 mM NaH2PO4, pH 7.4, 37° C.
Description: as §1, §2

B1: Flavonifractor plautii Galactosaminidase (FpGalNase) truncation _truncA (Flavonifractor plautii) (protein)
chain: AAPATDTGNAGLIAEGDYAIAGNGVRVTYDADGQTITLYRTEGSGLIQMSKPSPLGGPVIGGQEVQDFSHISCDVEQSTSGVMGSGQRMTITSQSMSTGLIRTYVLETSDIEEGVVYTATSYEAGASDVEVSWFIGSVYELYGAEDRIWSYNGGGEGPMHYYDTLQKIDLTDSGKFSRENKQDDTAASIPVSDIYIADGGITVGDASATRREVHTPVQETSDSAQVSIGWPGKVIAAGSVIEIGESFAVVHPGDYYNGLRGYKNAMDHLGVIMPAPGDIPDSSYDLRWESWGWGFNWTIDLIIGKLDELQAAGVKQITLDDGWYTNAGDWALNPEKFPNGASDALRLTDAIHEHGMTALLWWRPCDGGIDSILYQQHPEYFVMDADGRPARLPTPGGGTNPSLGYALCPMADGAIASQVDFVNRAMNDWGFDGFKGDYVWSMPECYNPAHNHASPEESTEKQSEIYRVSYEAMVANDPNVFNLLCNCGTPQDYYSLPYMTQIATADPTSVDQTRRRVKAYKALMGDYFPVTADHNNIWYPSAVGTGSVLIEKRDLSGTAKEEYEKWLGIADTVQLQKGRFIGDLYSYGFDPYETYVVEKDGVMYYAFYKDGSKYSPTGYPDIELKGLDPNKMYRIVDYVNDRVVATNLMGDNAVFNTRFSDYLLVKAVEISEPDPEPVDPDYGFTSVDDRDEALIYTGTWHDDNNASFSEGTARYTNSTDASVVFSFTGTSIRWYGQRDTNFGTAEVYLDDELKTTVDANGAAEAGVCLFEALDLPAAEHTIKIVCKSGVIDIDRFAYEAATLEPIYEKVDALSDRITYVGNWEEYHNSEFYMGNAMRTDEAGAYAELTFRGTAVRLYAEMSFNFGTADVYLDGELVENIILYGQEATGQLMFERTGLEEGEHTIRLVQNAWNINLDYISYLPEQDQPTPPETTVTVDAMDAQLVYTGVWNDDYHDVFQEGTARYASSAGASVEFEFTGSEIRWYGQNDSNFGVASVYIDNEFVQQVNVNGAAAVGKLLFQKADLPAGSHTIRIVCDTPVIDLDYLTYTTNA
Km [1]: 54.7 ± 3.1 µM | kcat [1]: 1.86 s⁻¹ | kcat/Km [1]: 34.08 s⁻¹ mM⁻¹

B2: Flavonifractor plautii GalNAcDeacetylase FpGalNAcDeAc_D1min, WT (Flavonifractor plautii) (protein)
chain: ADSSESALNKAPGYQDFPAYYSDSAHADDQVTHPDVVVLEEPWNGYRYWAVYTPNVMRISIYENPSIVASSDGVHWVEPEGLSNPIEPQPPSTRYHNCDADMVYNAEYDAMMAYWNWADDQGGGVGAEVRLRISYDGVHWGVPVTYDEMTRVWSKPTSDAERQVADGEDDFITAIASPDRYDMLSPTIVYDDFRDVFILWANNTGDVGYQNGQANFVEMRYSDDGITWGEPVRVNGFLGLDENGQQLAPWHQDVQYVPDLKEFVCISQCFAGRNPDGSVLHLTTSKDGVNWEQVGTKPLLSPGPDGSWDDFQIYRSSFYYEPGSSAGDGTMRVWYSALQKDTNNKMVADSSGNLTIQAKSEDDRIWRIGYAENSFVEMMRVLLDDPGYTTPALVSGNSLMLSAETTSLPTGDVMKLETSFAPVDTSDQVVKYTSSDPDVATVDEFGTITGVSVGSARIMAETREGLSDDLEIAVVENPYTLIPQSNMTATATSVYGGTTEGPASNVLDGNVRTIWHTNYAPKDELPQSITVSFDQPYTVGRFVYTPRQNGTNGIISEYELYAIHQDGSKDLVASGSDWALDAKDKTVSFAPVEAVGLELKAIAGAGGFGTAAELNVYAYGPIEPAPVYVPVDDRDASLVFTGAWNSDSNGSFYEGTARYTNEIGASVEFTFVGTAIRWYGQNDVNFGAAEVYVDGVLAGEVNVYGPAAAQQLLFEADGLAYGKHTIRIVCVSPVVDFDYFSYVGE
kcat/Km [2]: 8210 ± 2070 M⁻¹ s⁻¹

B3: Flavonifractor plautii GalNAcDeacetylase (FpGalNAcDeAc) truncation _D1 + 2 (Flavonifractor plautii) (protein)
chain: B2 chain
Km [3]: 265 ± 43 µM | kcat [3]: 9.99 s⁻¹ | kcat/Km [3]: 37.59 s⁻¹ mM⁻¹

B4: Flavonifractor plautii GalNAcDeacetylase (FpGalNAcDeAc) truncation _D1ext (Flavonifractor plautii) (protein)
chain: B2 chain
Km [4]: 212 ± 37 µM | kcat [4]: 5.37 s⁻¹ | kcat/Km [4]: 25.23 s⁻¹ mM⁻¹
